# Patent publication US20230322953A1 (HARBOUR BIOMED SHANGHAI, published 2023)
# Positions count from the first letter of the chain named.
# T1: human BCMA (human, UniProt Q02223 1-184)
# T1 construct: whole, on cells; also called hBCMA; TNFRSF17
# T1 sequence (looked up): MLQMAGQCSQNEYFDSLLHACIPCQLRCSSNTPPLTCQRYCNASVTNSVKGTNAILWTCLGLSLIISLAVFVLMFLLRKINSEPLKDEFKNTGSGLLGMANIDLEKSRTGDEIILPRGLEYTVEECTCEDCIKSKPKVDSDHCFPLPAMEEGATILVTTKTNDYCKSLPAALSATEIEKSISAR
# B1: PR001996 (bispecific antibody, IgG1)
# chain 1: EVQLLESGGGLVQPGGSLRLSCAASGFTFNTYAMNWVRQAPGKGLEWVSRIRSKYNNYATYYADSVKDRFTISRDDSKSTLYLQMNSLRAEDTAVYYCVRHGNFGNSYVSWFAYWGQGTLVTVSSASTKGPSVFPLAPSSKSTSGGTAALGCLVKDYFPEPVTVSWNSGALTSGVHTFPAVLQSSGLYSLSSVVTVPSSSLGTQTYICNVNHKPSNTKVDKKVEPKSC
# chain 2: QAVVTQEPSLTVSPGGTVTLTCRSSTGAVTTSNYANWVQQKPGQAPRGLIGGTNKRAPWTPARFSGSLLGDKAALTLLGAQPEDEAEYFCALWYSNLWVFGGGTKLTVLGQPKAAPSVTLFPPSSEELQANKATLVCLISDFYPGAVTVAWKADSSPVKAGVETTTPSKQSNNKYAASSYLSLTPEQWKSHRSYSCQVTHEGSTVEKTVAPTECSDKTHTCPPCPAPEAAGGPSVFLFPPKPKDTLMISRTPEVTCVVVDVSHEDPEVKFNWYVDGVEVHNAKTKPREEQYNSTYRVVSVLTVLHQDWLNGKEYKCKVSNKALGAPIEKTISKAKGQPREPQVYTLPPCREEMTKNQVSLWCLVKGFYPSDIAVEWESNGQPENNYKTTPPVLDSDGSFFLYSKLTVDKSRWQQGNVFSCSVMHEALHNHYTQKSLSLSPGK
# chain 3: EVQLVETGGGLIQPGGSLRLSCAASGFPVSSNYMSWVRQAPGKGLEWVSVIFSGGRTYYADSVKGRFTISRDNSKNTLYLQMNSLRAEDTAVYYCARRNWIDGRDAFDIWGQGTMVTVSSASEPKSSDKTHTCPPCPAPEAAGGPSVFLFPPKPKDTLMISRTPEVTCVVVDVSHEDPEVKFNWYVDGVEVHNAKTKPREEQYNSTYRVVSVLTVLHQDWLNGKEYKCKVSNKALGAPIEKTISKAKGQPREPQVCTLPPSREEMTKNQVSLSCAVKGFYPSDIAVEWESNGQPENNYKTTPPVLDSDGSFFLVSKLTVDKSRWQQGNVFSCSVMHEALHNHYTQKSLSLSPGK
# notes: BCMAxCD3, Fab(cross Fd/LC)-Fc-VH (structure 13); CD3 of PR000511, BCMA VH of PR000943; IgG1 knob/hole, AAG
# B2: PR002000 (bispecific antibody, IgG1)
# chain 1: QAVVTQEPSLTVSPGGTVTLTCRSSTGAVTTSNYANWVQQKPGQAPRGLIGGTNKRAPWTPARFSGSLLGDKAALTLLGAQPEDEAEYFCALWYSNLWVFGGGTKLTVLGGGQSGQGGSGGGGSEVQLVESGGGLVQPGGSLKLSCAASGFTFNTYAMNWVRQASGKGLEWVGRIRSKYNNYATYYADSVKDRFTISRDDSKSTLYLQMNSLKTEDTAVYYCVRHGNFGNSYVSWFAYWGQGTLVTVSSASEPKSSDKTHTCPPCPAPEAAGGPSVFLFPPKPKDTLMISRTPEVTCVVVDVSHEDPEVKFNWYVDGVEVHNAKTKPREEQYNSTYRVVSVLTVLHQDWLNGKEYKCKVSNKALGAPIEKTISKAKGQPREPQVYTLPPCREEMTKNQVSLWCLVKGFYPSDIAVEWESNGQPENNYKTTPPVLDSDGSFFLYSKLTVDKSRWQQGNVFSCSVMHEALHNHYTQKSLSLSPGK
# chain 2: B1 chain 3
# notes: BCMAxCD3, scFv(VL-VH)-Fc-VH (structure 20); CD3 scFv of PR000510, BCMA VH of PR000943; IgG1 knob/hole, AAG
# B3: PR001997 (bispecific antibody, IgG1)
# chain 1: B1 chain 1
# chain 2: B1 chain 2
# chain 3: B1 chain 3 with P28T, S35T, R56S, N99I, W100A, I101V, D102A, R104H, A106V
# notes: BCMAxCD3, Fab(cross Fd/LC)-Fc-VH (structure 13); CD3 of PR000511, BCMA VH of PR001035; IgG1 knob/hole, AAG
# B4: PR003870 (bispecific antibody, human IgG1, lambda, L234A L235A)
# light: QAVVTQEPSLTVSPGGTVTLTCRSSTGAVTTSNYANWVQQKPGQAPRGLIGGTNKRAPWTPARFSGSLLGDKAALTLLGAQPEDEAEYFCALWYSNLWVFGGGTKLTVLGQPKAAPSVTLFPPSSEELQANKATLVCLISDFYPGAVTVAWKADSSPVKAGVETTTPSKQSNNKYAASSYLSLTPEQWKSHRSYSCQVTHEGSTVEKTVAPTECS
# heavy: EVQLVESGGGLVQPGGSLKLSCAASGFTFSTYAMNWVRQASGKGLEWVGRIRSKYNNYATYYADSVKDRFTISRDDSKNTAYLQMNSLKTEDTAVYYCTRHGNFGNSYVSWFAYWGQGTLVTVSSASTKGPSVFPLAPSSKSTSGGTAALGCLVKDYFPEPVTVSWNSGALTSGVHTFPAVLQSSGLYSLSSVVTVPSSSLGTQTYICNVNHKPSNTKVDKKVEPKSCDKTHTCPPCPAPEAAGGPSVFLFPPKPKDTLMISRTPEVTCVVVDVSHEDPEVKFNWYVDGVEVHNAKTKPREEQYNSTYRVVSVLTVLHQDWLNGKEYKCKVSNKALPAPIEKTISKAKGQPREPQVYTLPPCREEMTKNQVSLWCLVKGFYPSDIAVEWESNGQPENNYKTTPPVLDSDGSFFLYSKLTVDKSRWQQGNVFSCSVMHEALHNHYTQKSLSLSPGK
# chain: EVQLVETGGGLIQPGGSLRLSCAASGFTVSDAYMTWVRQAPGKGLEWVSVIFSGGNTYVSDSVKGRFTISRDNAKNTLYLQMNSLRAEDTALYYCARRNYDQTIGTDVFDIWGQGTMVTVSSASEPKSSDKTHTCPPCPAPEAAGGPSVFLFPPKPKDTLMISRTPEVTCVVVDVSHEDPEVKFNWYVDGVEVHNAKTKPREEQYNSTYRVVSVLTVLHQDWLNGKEYKCKVSNKALPAPIEKTISKAKGQPREPQVCTLPPSREEMTKNQVSLSCAVKGFYPSDIAVEWESNGQPENNYKTTPPVLDSDGSFFLVSKLTVDKSRWQQGNVFSCSVMHEALHNHYTQKSLSLSPGK
# notes: BCMAxCD3, Fab-Fc-VH (structure 11); CD3 Fab of PR003886, BCMA VH of PR004565; IgG1 knob/hole, LALA
# B5: PR001998 (bispecific antibody, IgG1)
# chain 1: B1 chain 1
# chain 2: B1 chain 2
# chain 3: B4 chain with A32N, V59Y, S60A, Q102D, I104R, P238G
# notes: BCMAxCD3, Fab(cross Fd/LC)-Fc-VH (structure 13); CD3 of PR000511, BCMA VH of PR001046; IgG1 knob/hole, AAG
# B6: PR003874 (bispecific antibody, human IgG1, lambda, L234A L235A)
# light: B4 light
# heavy: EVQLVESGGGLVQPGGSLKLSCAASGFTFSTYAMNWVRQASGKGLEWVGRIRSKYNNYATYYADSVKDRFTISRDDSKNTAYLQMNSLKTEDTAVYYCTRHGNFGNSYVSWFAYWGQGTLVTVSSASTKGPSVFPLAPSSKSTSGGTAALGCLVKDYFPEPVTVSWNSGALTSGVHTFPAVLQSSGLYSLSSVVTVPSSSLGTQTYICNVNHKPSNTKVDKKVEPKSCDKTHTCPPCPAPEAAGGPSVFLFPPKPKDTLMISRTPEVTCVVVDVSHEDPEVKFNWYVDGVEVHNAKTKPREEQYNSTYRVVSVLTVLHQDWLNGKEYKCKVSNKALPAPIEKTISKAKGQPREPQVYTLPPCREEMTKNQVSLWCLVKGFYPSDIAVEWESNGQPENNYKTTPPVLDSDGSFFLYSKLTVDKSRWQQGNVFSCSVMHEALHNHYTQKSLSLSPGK
# chain: B4 chain with A32S, N56R, V59Y, I104R
# notes: BCMAxCD3, Fab-Fc-VH (structure 11); CD3 Fab of PR003886, BCMA VH of PR004569; IgG1 knob/hole, LALA
# B7: PR003872 (bispecific antibody, human IgG1, lambda, L234A L235A)
# light: B4 light
# heavy: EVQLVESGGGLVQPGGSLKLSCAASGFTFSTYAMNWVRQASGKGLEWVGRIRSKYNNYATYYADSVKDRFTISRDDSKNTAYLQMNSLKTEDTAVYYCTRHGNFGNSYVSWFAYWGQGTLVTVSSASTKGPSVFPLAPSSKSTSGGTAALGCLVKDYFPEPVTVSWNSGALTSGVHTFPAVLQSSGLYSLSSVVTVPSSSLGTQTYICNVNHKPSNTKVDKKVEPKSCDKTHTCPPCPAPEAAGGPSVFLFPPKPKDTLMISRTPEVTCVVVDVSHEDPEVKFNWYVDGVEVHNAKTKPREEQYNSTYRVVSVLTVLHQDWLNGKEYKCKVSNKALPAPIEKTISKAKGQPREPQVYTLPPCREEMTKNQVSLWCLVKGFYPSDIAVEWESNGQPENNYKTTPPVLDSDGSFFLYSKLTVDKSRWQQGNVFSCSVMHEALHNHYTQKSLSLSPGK
# chain: B4 chain with A32S, N56K, S60A, I104R
# notes: BCMAxCD3, Fab-Fc-VH (structure 11); CD3 Fab of PR003886, BCMA VH of PR004567; IgG1 knob/hole, LALA
# B8: PR002002 (bispecific antibody, IgG1)
# chain 1: B2 chain 1
# chain 2: B4 chain with A32N, V59Y, S60A, Q102D, I104R, P238G
# notes: BCMAxCD3, scFv(VL-VH)-Fc-VH (structure 20); CD3 scFv of PR000510, BCMA VH of PR001046; IgG1 knob/hole, AAG
# B9: PR001999 (bispecific antibody, IgG1)
# chain 1: B2 chain 1
# chain 2: EVQLLESGGGLVQPGGSLRLSCAASGFTFSSYAMIWVRQAPGKGLEWVSGISESGGSTYYADSVKGRFTISRDNSKNTLYLQMNSLRAEDTAVYFCVKDLDDILTGYYKDYWGQGTLVTVSSASEPKSSDKTHTCPPCPAPEAAGGPSVFLFPPKPKDTLMISRTPEVTCVVVDVSHEDPEVKFNWYVDGVEVHNAKTKPREEQYNSTYRVVSVLTVLHQDWLNGKEYKCKVSNKALGAPIEKTISKAKGQPREPQVCTLPPSREEMTKNQVSLSCAVKGFYPSDIAVEWESNGQPENNYKTTPPVLDSDGSFFLVSKLTVDKSRWQQGNVFSCSVMHEALHNHYTQKSLSLSPGK
# notes: CD3 scFv of PR000510, BCMA VH of PR000940; IgG1 knob/hole, AAG
# Target: T1, human BCMA
# Test: FACS on NCI-H929 cells
Binder,Maximum MFI,EC50
B1,3320,–
B2,4640,–
B3,1460,–
B4,10600,3.3 nM
B5,3260,–
B6,11000,1.5 nM
B7,11300,1.1 nM
B8,4500,–
B9,3480,–
